Here are results for 16 molecules from PMC10066265, “Inhibitor-3 inhibits Protein Phosphatase 1 via a metal binding dynamic protein–protein interaction” (Nature Communications, 2023).

“And” between values parts separate entries of the source, which are not always exact repeats. Equal entries are not always repeated. Where two headings read alike, the source gives them in different places.

The target of assay [1] is T1, PP1_7-330 (Homo sapiens, UniProt P62136).
T1 construct: gene PPP1CA; His6-PP1α7-330, E. coli expressed, Mn2+ loaded
The protocol: SPR measurements were performed using a 4-channel Reichert 4SPR instrument fitted with autosampler and a degassing pump (Reichert Technologies). SPR buffers containing 20 mM Tris pH 8.0, 500 mM NaCl, 1 mM MnCl2, 0.5 mM TCEP, 0.05% Tween-20 were prepared, sterile filtered, and degassed in autoclaved glassware prior to each experiment. Running buffer was used to prime and run both the sample and syringe pump reservoirs. Gold sensorchips modified with Ni-NTA-functionalized polycarboxylate (NiH[…]; XanTec Bioanalytics GmbH) were installed and equilibrated under flow conditions (100 μL/min) for ≥60 min at 25 °C. Surface contaminants were cleared from the chip surface by a pair of 120 μL injections of 2 M NaCl and 10 mM NaOH during the equilibration step. […] The sensorchip was allowed to equilibrate for 5 min at 50 μL/min prior to initiation of experiments. The concentrations of I3_1-126 and its variants ([…] and […]3_79-91) were measured using AccuOrange^TM Protein Quantification Kit (Biotium). For measurements, I3_1-126 and its variants were diluted into running buffer from concentrated stocks, and a series of injections at different I3 concentrations were applied. […] For all experiments, buffer blank injections were included at an interval of two sample injections to achieve double referencing. Technical replicates were obtained by utilizing three channels per chip coupled with stripping of the sensorchip with 350 mM EDTA pH 8.0, reconditioning the surface with 10 mM NaOH to remove non-specifically bound PP1 aggregates, charging the surface with 10 mM NiSO4, and reloading fresh PP1 onto the surface. All replicates were generated with freshly diluted PP1 and I3. Kinetic parameters were determined by curve-fitting using TraceDrawer software (Ridgeview Instruments AB) fit with a one-to-one one state or one-to-one two state model. Statistical analyses of SPR data were performed using Microsoft Excel.

Assay [2] addresses T1, PP1_7-330. Conditions: SD, n = 3.
For assay [3], the target named is T2, His6-PP1α_(7-330) (UniProt P62136 7-330).
T2 construct: Protein Phosphatase 1 alpha (PP1α), residues 7-330; Captured by its His6 tag on the Ni-NTA chip for SPR; Two Mn2+ at the active site when made in E. coli with MnCl2; also called PP1_(7-330); Protein Phosphatase 1; source: bacterial expression (E. coli) as previously described, purified (Ni-NTA, SEC)
The experiment in a line: SPR; His6-PP1 captured on a Ni-NTA sensorchip (NiHC200M), I3 variants injected; 25 °C; 20 mM Tris pH 8.0, 500 mM NaCl, 1 mM MnCl2, 0.5 mM TCEP, 0.05% Tween-20; one-to-one one state or one-to-one two state model. Conditions: both partners purified.

In another assay the target is T3, PP1α_(7-330) (UniProt P62136 7-330).
T3 construct: Protein Phosphatase 1 alpha (PP1α), residues 7-330; His6-PP1 was captured on the Ni-NTA sensor chip as the SPR ligand; Mn2+ in all buffers; also called Protein Phosphatase 1; His6-PP1; source: E. coli, purified (Ni-NTA, SEC)
The experiment in a line: SPR; His6-PP1 captured on Ni-NTA chip (NiHC200M), I3 variants injected; 25 °C; 20 mM Tris pH 8.0, 500 mM NaCl, 1 mM MnCl2, 0.5 mM TCEP, 0.05% Tween-20; one-to-one one state or one-to-one two state model (TraceDrawer). Conditions: both partners purified. Background: In SPR one partner is held on a chip, and binding of the other changes the refractive index at the surface.

Assay [4] addresses T2, His6-PP1α_(7-330). Put plainly: cell-based or functional assay.

T1 sequence (P62136 7-330): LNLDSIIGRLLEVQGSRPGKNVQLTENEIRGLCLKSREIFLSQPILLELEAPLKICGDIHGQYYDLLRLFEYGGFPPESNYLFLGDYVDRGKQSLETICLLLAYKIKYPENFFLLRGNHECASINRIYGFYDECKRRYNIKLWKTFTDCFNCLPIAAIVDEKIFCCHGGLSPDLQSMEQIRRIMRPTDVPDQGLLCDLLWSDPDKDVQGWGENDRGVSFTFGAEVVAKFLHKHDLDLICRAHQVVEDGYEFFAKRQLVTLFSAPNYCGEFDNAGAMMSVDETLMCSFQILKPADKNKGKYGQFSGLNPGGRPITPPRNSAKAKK
T2 sequence (P62136 7-330): as above
T3 sequence (P62136 7-330): as above

One may read the Kd as the equilibrium constant for the complex coming apart. Read a high Kd as lower affinity. On PP1_7-330 [1] (n = 3), “I3 1-126 T29A/I30A/K31A [SILKdead: I3_1-126 T29A/I30A/K31A]” came in with a Kd of 13.1 ± 2.8 nM.
Take “I3 1-126 C60S/C61S/C62S [SSS: I3_1-126 C60S/C61S/C62S]”: binding on PP1_7-330 [1] (n = 3) was put at a Kd of 300 ± 23 nM.
As for “I3 1-126 with KVEW 40-43 mutated to KAEA [RVxFdead: I3_1-126 ^40KAEA^43]”, at PP1_7-330 [1] (n = 4), binding was characterised by a dissociation constant (Kd) of 3460 ± 531 nM.
In general, IC50 refers to the concentration needed to halve the response being measured. A high value points to weaker potency. Regarding “human Inhibitor-3 (PPP1R11) full length, residues 1-126 [I3_1-126]”, half-maximal inhibition against PP1_7-330 [2] (IC50) required 71 ± 6 nM. Besides, at PP1_7-330 [1] (n = 3), binding was put at a Kd of 15.7 ± 2 nM.

B1: SILK_(deletion): I3_(38-68) (Δ27-37) (domain or fragment, human, UniProt O60927 38-68, looked up)
chain: EKKVEWTSDTVDNEHMGRRSSKCCCIYEKPR
notes: PPP1R11), human, residues 38-68; source: E. coli BL21 (DE3), purified (Ni-NTA, TEV, heat 95 °C, SEC); not shown: His6, N-terminal, cleaved; MBP, N-terminal, cleaved
In the case of B1, the Kd in the assay with His6-PP1α_(7-330) [3] came to 15.2 ± 2.5 nM.

B2: SILK_(deletion): I3_(38-68) (Δ27-37) (domain or fragment, human, UniProt O60927 38-68, looked up)
chain: EKKVEWTSDTVDNEHMGRRSSKCCCIYEKPR
notes: PPP1R11), human, residues 38-68; also called SILKdead: I338-68 (Δ27-37); source: E. coli BL21 (DE3), purified (Ni-NTA, TEV cleavage, heat, SEC); not shown: His6, N-terminal, cleaved; MBP, N-terminal, cleaved
In the case of B2, the Kd with PP1α_(7-330) was 14.8 nM and 17.9 nM and 13 nM.

B3: SILK_(dead): I3_(27-68) T29A/I30A/K31A (domain or fragment, human, UniProt O60927 27-68, looked up)
chain: SLAAALRKRKPEKKVEWTSDTVDNEHMGRRSSKCCCIYEKPR
notes: PPP1R11), human, residues 27-68; also called I3_(27-68) 29AAA31; source: E. coli BL21 (DE3), purified (Ni-NTA, TEV, heat 95 °C, SEC); not shown: His6, N-terminal, cleaved; MBP, N-terminal, cleaved
Consider B3, for which the Kd with His6-PP1α_(7-330) [3] worked out at 16.8 ± 2.8 nM.

B4: SILK_(dead): I3_(27-68) T29A/I30A/K31A (domain or fragment, human, UniProt O60927 27-68, looked up)
chain: SLAAALRKRKPEKKVEWTSDTVDNEHMGRRSSKCCCIYEKPR
notes: PPP1R11), human, residues 27-68, T29A/I30A/K31A; also called I3_27-68_SLAAA; I3_(27-68) 29AAA31; source: E. coli BL21 (DE3), purified (Ni-NTA, TEV cleavage, heat, SEC); not shown: His6, N-terminal, cleaved; MBP, N-terminal, cleaved
As for B4, the Kd with PP1α_(7-330) is 13.5 nM and 18.2 nM and 18.6 nM.

B5: Inhibitor-3 I3_(1-126) (full-length) (natural protein, human, UniProt O60927 1-126, looked up)
chain: MAEAGAGLSETVTETTVTVTTEPENRSLTIKLRKRKPEKKVEWTSDTVDNEHMGRRSSKCCCIYEKPRAFGESSTESDEEEEEGCGHTHCVRGHRKGRRRATLGPTPTTPPQPPDPSQPPPGPMQH
notes: PPP1R11), human, 126 aa, residues 1-126; Uniformly 15N-labelled in the NMR experiment, unlabelled in SPR; also called PPP1R11; YPI1; source: E. coli BL21 (DE3), purified (Ni-NTA, TEV, heat 95 °C, SEC); not shown: His6, N-terminal, cleaved; MBP, N-terminal, cleaved
B5: the “IC50 of PP1 inhibition (dephosphorylation of the H3pT3 peptide, released Pi)” value with His6-PP1α_(7-330) [4] came out at 71 nM. This molecule showed a Kd in the assay with His6-PP1α_(7-330) [3] of 15.7 ± 2 nM.

B6: I3_(1-126) (FL, full-length) (natural protein, human, UniProt O60927 1-126, looked up)
chain: MAEAGAGLSETVTETTVTVTTEPENRSLTIKLRKRKPEKKVEWTSDTVDNEHMGRRSSKCCCIYEKPRAFGESSTESDEEEEEGCGHTHCVRGHRKGRRRATLGPTPTTPPQPPDPSQPPPGPMQH
notes: PPP1R11), human, 126 aa, residues 1-126; also called PPP1R11; source: E. coli BL21 (DE3), purified (Ni-NTA, TEV cleavage, heat, SEC); not shown: His6, N-terminal, cleaved; MBP, N-terminal, cleaved
As for B6, the Kd in the assay with PP1α_(7-330) is 17.7 nM and 13.7 nM and 15.6 nM.

B7: SSS: I3_(1-126) C60S/C61S/C62S (natural protein, human, UniProt O60927 1-126, looked up)
chain: MAEAGAGLSETVTETTVTVTTEPENRSLTIKLRKRKPEKKVEWTSDTVDNEHMGRRSSKSSSIYEKPRAFGESSTESDEEEEEGCGHTHCVRGHRKGRRRATLGPTPTTPPQPPDPSQPPPGPMQH
notes: PPP1R11), human, residues 1-126; also called I3_(1-126)SSS; source: E. coli BL21 (DE3), purified (Ni-NTA, TEV, heat 95 °C, SEC); not shown: His6, N-terminal, cleaved; MBP, N-terminal, cleaved
As to B7, the affinity in the assay with His6-PP1α_(7-330) [3], expressed as Kd, was 300 ± 23 nM.

B8: SILK_(dead): I3_(1-126) T29A/I30A/K31A (natural protein, human, UniProt O60927 1-126, looked up)
chain: MAEAGAGLSETVTETTVTVTTEPENRSLAAALRKRKPEKKVEWTSDTVDNEHMGRRSSKCCCIYEKPRAFGESSTESDEEEEEGCGHTHCVRGHRKGRRRATLGPTPTTPPQPPDPSQPPPGPMQH
notes: PPP1R11), human, residues 1-126; also called I3_(1-126) 29AAA31; source: E. coli BL21 (DE3), purified (Ni-NTA, TEV, heat 95 °C, SEC); not shown: His6, N-terminal, cleaved; MBP, N-terminal, cleaved
With B8, in the assay with His6-PP1α_(7-330) [3], the Kd stood at 13.1 ± 2.8 nM.

B9: SILK_(dead): I3_(1-126) T29A/I30A/K31A (natural protein, human, UniProt O60927 1-126, looked up)
chain: MAEAGAGLSETVTETTVTVTTEPENRSLAAALRKRKPEKKVEWTSDTVDNEHMGRRSSKCCCIYEKPRAFGESSTESDEEEEEGCGHTHCVRGHRKGRRRATLGPTPTTPPQPPDPSQPPPGPMQH
notes: PPP1R11), human, residues 1-126, T29A/I30A/K31A; also called I3_1-126_SLAAA; I3_(1-126) 29AAA31; source: E. coli BL21 (DE3), purified (Ni-NTA, TEV cleavage, heat, SEC); not shown: His6, N-terminal, cleaved; MBP, N-terminal, cleaved
For the molecule B9, the Kd in the assay with PP1α_(7-330) was 16.3 nM and 11.9 nM and 11.2 nM.

B10: RVxF_(dead): I3_(1-126) 40KAEA43 (natural protein, human, UniProt O60927 1-126, looked up)
chain: MAEAGAGLSETVTETTVTVTTEPENRSLTIKLRKRKPEKKAEATSDTVDNEHMGRRSSKCCCIYEKPRAFGESSTESDEEEEEGCGHTHCVRGHRKGRRRATLGPTPTTPPQPPDPSQPPPGPMQH
notes: PPP1R11), human, residues 1-126, 40KVEW43 mutated to 40KAEA43; also called I3_1-126_KAEA; I3_(RAXA); source: E. coli BL21 (DE3), purified (Ni-NTA, TEV cleavage, heat, SEC); not shown: His6, N-terminal, cleaved; MBP, N-terminal, cleaved
Turning to B10, the dissociation constant (Kd) with PP1α_(7-330) is 3390 nM and 3260 nM and 2970 nM and 4210 nM.

B11: SSS: I3_(1-126) C60S/C61S/C62S (natural protein, human, UniProt O60927 1-126, looked up)
chain: MAEAGAGLSETVTETTVTVTTEPENRSLTIKLRKRKPEKKVEWTSDTVDNEHMGRRSSKSSSIYEKPRAFGESSTESDEEEEEGCGHTHCVRGHRKGRRRATLGPTPTTPPQPPDPSQPPPGPMQH
notes: PPP1R11), human, residues 1-126, C60S/C61S/C62S; also called I3_1-126_SSS; I3_(1-126)SSS; source: E. coli BL21 (DE3), purified (Ni-NTA, TEV cleavage, heat, SEC); not shown: His6, N-terminal, cleaved; MBP, N-terminal, cleaved
By koff is commonly meant the first-order rate constant of dissociation. As usually defined, the kon is the second-order rate constant of association. For B11, in the assay with PP1α_(7-330), the equilibrium dissociation constant (Kd) was 295 nM and 330 nM and 287 nM and 304 nM; the koff was 0.0957 s⁻¹ and 0.103 s⁻¹ and 0.093 s⁻¹ and 0.0972 s⁻¹; the kon is 325000 M⁻¹ s⁻¹ and 313000 M⁻¹ s⁻¹ and 321000 M⁻¹ s⁻¹.

B12: RVxF_(dead): I3_(1-126) 40KAEA43 (natural protein, human, UniProt O60927 1-126, looked up)
chain: MAEAGAGLSETVTETTVTVTTEPENRSLTIKLRKRKPEKKAEATSDTVDNEHMGRRSSKCCCIYEKPRAFGESSTESDEEEEEGCGHTHCVRGHRKGRRRATLGPTPTTPPQPPDPSQPPPGPMQH
notes: PPP1R11), human, residues 1-126; Uniformly 15N-labelled in the NMR experiment, unlabelled in SPR; also called I3_(RAXA) variant; I3 RVxF_(dead); source: E. coli BL21 (DE3), purified (Ni-NTA, TEV, heat 95 °C, SEC); not shown: His6, N-terminal, cleaved; MBP, N-terminal, cleaved
B12 yielded a Kd with His6-PP1α_(7-330) [3] of 3460 ± 531 nM.
